# B1: sLZIP: human small leucine-zipper protein, isoform of LZIP, 354 amino acids, no transmembrane domain; GenBank FJ263669, SEQ ID NO: 1 (protein, listed as Homo sapiens)
# chain: MELELDAGDQDLLAFLLEESGDLGTAPDEAVRAPLDWALPLSEVPSDWEVDDLLCSLLSPPASLNILSSSNPCLVHHDHTYSLPRETVSMDLESESCRKEGTQMTPQHMEELAEQEIARLVLTDEEKSLLEKEGLILPETLPLTKTEEQILKRVRRKIRNKRSAQESRRKKKVYVGGLESRVLKYTAQNMELQNKVQLLEEQNLSLLDQLRKLQAMVIEISNKTSSSSMYSSDTRGSLPAEHGVLSRQLRALPSEDPYQLELPALQSEVPKDSTHQWLDGSDCVLQAPGNTSCLLHYMPQAPSAEPPLEWPFPDLFSEPLCRGPILPLQANLTRKGGWLPTGSPSVILQDRYSG
# Legend:
# HDAC3 [1] = experiment: HDAC3 ubiquitination (Ha-UB, GST pull-down) in 293T cells; assay type: cell-based; conditions: ligand treated (10 nM RZD, 24 hours)
# Experimental: Therefore, in order to understand a regulation mechanism of sLZIP in the PPARγ2 transcriptional activity by binding to the FABP4 promoter region, an effect of sLZIP on the interaction between PPARγ2 and HDAC3 was examined. For this purpose, 293T cells were transfected with GST-HDAC3, Myc-PPARγ2 and Flag-sLZIP, and were treated or not treated with 10 nM of RZD for 24 hours. Cell lysates were subjected to GST pull-down analysis using a glutathione 4B bead, and a protein complex was analyzed in SDS-PAGE, and then immunoblotted with anti-GST, anti-Myc and anti-Flag antibodies (FIG. 6A). GST-HDAC3, GST-PPARγ2, Myc-PPARγ2, Flag-sLZIP and Ha-UB were expressed in the 293T cells, and the cells were treated with 10 nM of RZD for 24 hours. Cell lysates were subjected to GST pull-down analysis (FIG. 6B). GST-PPARγ2 and Flag-sLZIP were expressed in the 293T cells and treated with 10 nM of RZD for 24 hours. Cell lysates were subjected to GST pull-down analysis, and a protein complex was analyzed in SDS-PAGE, and then immunoblotted with anti-PGC1α, anti-GST and anti-Flag antibodies (FIG. 6C).
# HDAC3 [2] = experiment: GST pull-down of GST-HDAC3 and Flag-sLZIP in 293T cells; assay type: binding
# Experimental: 293T cells were obtained and washed with cold PBS. The cells were re-suspended in an IP lysis buffer [25 mM of Tris-HCl (pH 7.4), 150 mM of NaCl, 1 mM of EDTA, 1% NP-40 and 5% glycerol, and a protease inhibitor]. A suspension was centrifuged at 16,000×g for 20 minutes at 4° C. Supernatants were collected and incubated with 0.5 μg of appropriate antibodies and 25 μl of protein A/G-agarose or a GST Sepharose 4B bead for 24 hours at 4° C. A protein complex was centrifuged at 1,000×g with a cold IP lysis buffer for 1 minute and washed five times. The final pellet was re-suspended in 50 μl of an SDS-sample buffer containing 5% β-mercaptoethanol and heated for 10 minutes at 100° C. […] Co-precipitated proteins were detected according to western blotting using specific antibodies.
# For this purpose, 293T cells were transiently transfected with PPARγ2 (0.5 μg), (3-galactosidase (0.1 μg), FABP4-Luc reporter genes (0.2 μg) and sLZIP (0.1 μg). After the transfection, the cells were stimulated with or without 10 nM of RZD and 10 nM of TSA (FIG. 4A). A promoter activity was measured according to luciferase analysis. In the 293T cells, FABP4-Luc reporter genes, sLZIP, PPAR, β-galactosidase, and 100 nM of si-RNAs and HDAC1, 2, 3 and 8 for a control group were expressed. After the transfection, the cells were stimulated with or without 10 nM of RZD, and a promoter activity was measured (FIG. 4B). […]
molecule,measurement,setting,value
B1,HDAC3 ubiquitination,HDAC3 [1],inhibited HDAC3 ubiquitination
same,interaction with HDAC3 (GST pull-down),HDAC3 [2]; 10 nM RZD for 24 hours,HDAC3 was remained as being interacted with sLZIP
same,interaction with HDAC3 (GST pull-down),HDAC3 [2]; no RZD,interacted with HDAC3 in a PPARγ2 corepressor complex

# Source: patent publication US10058586B2, “Use of human small leucine zipper protein in adipocyte differentiation procedure” (Korea University Research and Business Foundation, priority 2013, dated 2018)
